Measured values: the domain aggregation screens of Martell et al. (2025)

Test: soluble fraction after stress (log2 fold change); higher = more stays soluble; pooled small domains, quantitative proteomics
Settings: stress: 75 degC
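Further: 20 min heating vs room temperature control held 20 min.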

Row | Sequence | soluble fraction (log2)
1 | HMIMGTIEKRGPFSFRIGVQVRLPDGSWEWIRDTIHVSPDLSARAARKQAEMALARLEADVYEGKRKPD | -2.18
2 | HMLDKRSHAKKVLDAIEAVILGRATNDQLAYTINGRSLQKTPLPDLLRLRSQYQAEYQRELRAERIRKG | -0.697
3 | HMNNYFPAYKGSATSIAPALKQMGVNNSYAYRSKIAAVNNITGYRGTPAQNTQMLNLLKQGRLIK | 0.349
4 | HMAVTKVKVITESSNLNIRKGPGTDQPIVGKAAHHEIITLVNKSNDQWWLVRTNDGEEGYSYSRYLEPVT | -0.667
5 | HMAKSMRHLIVPSRETSLWRDKLSTNGWLSKGYGIHNLDDYRGIPLNETAPKIIEGLEITELEPIS | 0.124
6 | HMLPDDDMLLNILTKLLIDKQFVINSHEIFDFIIKRANRSYEEMFILVNKLDQLSLEKKRQLTIPLIKEI | -0.881
7 | HMYRYTTFKVKEADTLLPFIQKSLNGISHNRAKAILTGGGVLVDKKITRAYDFALRPGMTVEISKSKP | -1.72
8 | HMVFTEEERAEYREKMLDAGFDLLKQYGMTHMSVAKITEAAGIGVSTFYNFFSSKEEYVYEVLQYRRRK | -1.3
9 | HMTLYITDQMRKILDYVATNQEIDEKAVMDLLSIQRTRAYLIAKKMTDIGLLQVQGRGKTKTYRLAARS | -2.08
10 | HMGLSENALAMLKQQETVLIRLIDGRGNQGALASINLIVSRILNLDIVDRTPEDLLRVIASEGEQND | -3.81
11 | HMDGVLVYKEGMTVADMATGLGKTIAQVVMKLMQLGIMANQNQSVDRETVELVALDFGYELKD | -2.27
12 | HMGIKSSASLQEAAEKAQSAYYDIEHSGVATAVDIQRAWVAMVAAQIDAGEKLDSGTITLYERLKTST | 0.0117
13 | HMSEKAQSENEDLIKILALLIHAAKIDENYSEKEKKLIISFAEMSSNKKLDREQINSLVDKAEQYEK | -0.532
14 | HMSEQYEQIQLALKTLTQDEQDIVRLVVVEGASLRTAGKNLGVSAMTIQRRLKRALARLRDLLAS | -0.839
15 | HMGVIDTLSGPQKAAAILVAIGRPSASRLLKHFNAEDLRKLAGHARTLEPISPLDFEHLVKQFEDSFAEG | -0.874
16 | HMQSLDGPSRAAIVLMAIGPDVAGELIKSFSPAEAQKVSSLLATVRSLDREVMIEVLDSFKNITEH | -0.339
17 | HMISDDLYQAVLDFTLTQDTISISRLQQNFNLGWPRARQLYDQLMQNGIIEPPDEANSAKGAVVIANKRG | 0.697
18 | HMSVDIIPGKADQKVRLIHDPAIVGVTTGGVKTAGPHTLIQIELGPNERPYKRLSLLELIPEG | -0.347
19 | HMKRDYELPAFIETYLKKNHVAIDTKSAAMIAEHIGADLSRLISELDKVMISLPDDDRRVTPDVVEREI | -0.0791
20 | HMDVTSLDMLRFLMDQHGLRQQDLSELGSQGVVSEILAGKRELNLRHIGALARRFKVPPEVFLPA | -0.778
21 | HMGAGLLEPEPLKIEIQETQERLQKLQKALERDTETADSKERIKRAIEAHKARISQLQGLIE | 0.219
22 | HMKGALQIAIEEGFNWNLDKKYWNIVQSTVIAKRLGLKTTSGLKEAIEGMGGEYKRTKKARGYLVPTFKD | -3.98
23 | HMSSASETQYELALQAMRDGDNDAALRSLSTALASGFSDWQRIDEEPLLAALANDVRFQVLRSRWK | 0.0593
24 | HMDAHIGTLTPRERETLHHLAIGHSNKVIAKKLNLAESTVKAYVQSILRKLGLSSRVQAAVYAIQHDIR | -0.702
25 | HMNATQLSNTQKQIRTQLLERLSNNPLTVKQLADRMFVPIDTILKEITALIQEQKIIEDKGGKLQIN | -0.135
26 | HMGIDSSVYVEARYELGHLYLKQKKYAAAYASFKEILDMYASTTPGVLPGAYNKLAEIGMKRIPKNKL | -2.66
27 | HMEDYYKEDYYTEVLKIPKEYIKGFQYYLIEDAEFVNALNAKNKTMTSFLAKKLASDYIEIIHQEQ | -2.2
28 | HMNLPISDREKELLTLLSKGLLYKEIASKLDITIGTVKQHIHNIYHKLHVSNKTEALNLFNK | -1

Row | Sequence | soluble fraction (log2)
29 | HMREELIALYRAIARLSEDEQELLNLFYFARRPLSEIAQLTGMTPGAAKTRLYRARRHLRREMEEDGYG | -1.07
30 | HMLVSFGDHLKRYIYERAGIEEPFGEVPQEIYRDIAVDSFRETYTPKSMNPTSTKLPALVNNWLIQ | -0.843
31 | HMAEVHVDGVTYQFSNPEQAVKFARKIAKELGLKVEVHGETVHVK | -0.0253
32 | HMRTKLEEAVEWLQEQLNDGPVLSKELESEAKAADILPGTLRRAGEALGVVKQKQGGRGGWTWSLPR | -0.017
33 | HMYRLSPSWRIVERDDGFEIYGGDDARFQLDPSPLVSRLAAGDAVTRDGLDPTGAIEFEQLLSAGMIRPEI | -0.263
34 | HMGDSEMPVSEVVRLAKLDQISSIEISGTKLTIITNNLETYTSRIEENSTIIEILQRAGVDIGGLEIYPHG | -1.53
35 | HMSRREEALIALAQRVARQVARTKQPVTLEPMPANERRVIHVALRDNPDVETRSSGEGDQRRVTVYPRQ | -0.228
36 | HMRRHLLEMNDAIGRLGRLISEDPADRDVAEVIWAALRGMVMGQMIMNEPIDWQRERRTLVEMAIGR | 0.0485
37 | HMNLSPADFSSVRNALGLSLSTVAKESGINRNYLSNFEKKKHFLEETAKVKLRDYYMSIDPDAFAAAL | -0.408
38 | HMVKTIINGEEKDFDAQDFQTFGDFLKKVIPEGQILKSLKINSKDVPIAFIDELKSATVDENITIEMELA | 0.682
39 | HMAAAKDVMDWQNAIRGLTDAKGKPYSPTYLKTVHNQLSALFNHAVRYYGLQVNPAAKAGNMGVEE | -0.131
40 | HMKYPVYLQLADLIERKINKNEYPLGSKIPSERELIDAFGISRMTVRKAIEVLIEKGLLTRQHGKGTYVSQ | -2.26
41 | HMAIGTDPETGISVVADGTDFIWTRSGATSTIFLRLDSENSYILNVKQGDFEVIDYELGEGQENAINIDQS | 0.0422
42 | HMGTLNLSQAYREWGMAEIEANRDYYGPVRFDDIAFQMSPAGQQLQARFVASYADRLHDAIEGEL | -0.364
43 | HMEYREFEAMTIRAIATLPPTQGHVIMLSRFEGLDNKEIALRLNLSLQTVKNTLTQGLKELKNKMRKLP | -2.02
44 | HMDHFFSKYDSIVNHTVQKKETLFGISKKYGLTINEVIKFNPGIQIDKLKRRSVLIIPLMKKN | -1.07
45 | HMQLTPAQHAILAKAIHSSDGKIEWFPDNVKGGARKKVLEGMFNRALITPDGEGWRIAAEGYDALGMPRP | -0.097
46 | HMRHEDLSPAQKAAALVVAVGSENAAQVLRHLSEEEVEILAGEVARLGEVDPDVVDSVMREVYEQMMGH | -0.642
47 | HMQIEQVDYGTFMTMIDDKKIDKVEIKDNQILFIGKDDNKKYKTGIVQDPQLAERLHASGAVFSQDI | 0.261
48 | HMLSAQEIPVEDIATRDFVLAEDVVSAKKVLLLPKGVDLSWFGSAKKRLVQRLKSEGVTHIRVFA | -2.06
49 | HMGTQKVQVVNGPINVRSGPGPTFEKIGMVEDQAVYQVVSKKDDWFQISLPGNKTAWVAGWLVKEIK | -0.035
50 | HMKMAKTIKEIAEEIGVSKQAVFKKIKQVPLSTEIEKFISTVDGKKLVSVDGENLIKQAFQR | 0.355
51 | HMKIDNPEYQKIMDMIPYFFQTRNYDEAIEALSYVIEQEPSFSEAYNKRATFYFMMGDFENSMKDIESTLA | -0.288
52 | HMETTMVEIKAEFTIRNRLDIPAMMEKAGYKDRGEFLSVLEKITGNYNWDRDVKKGDTFMVPSKLA | -1.75
53 | HMQKWILVNKQGRLSGILDHRAFNTRESATAWFQRTSDISGGTIKIDDYYYVLKNEEYKLLKE | -3.09
54 | HMKEVDSESAFAERGISEVWIPALQKMGILTLEALDAANPNKVFNDLGGMRKKLKIDAAMPTKDEVTAWIQ | 0.0576
55 | HMLEDYFKEEEYTEVLKIPKEYIKGFQYYLIEDAEFVNALRAKNKTMTLFLAKKLASDYIEIIRREQ | -2.39
